Measurements reported in patent CN117396506A (NOVARTIS AG, dated 2024).

Columns and labels:
重组人IL-18 = target: T1, 重组人IL-18 (human, UniProt Q14116 37-193); assay: SET, single-target binding assay
T1 construct: In the LPS/IL-12 assays the IL-18 is the native cytokine made by the blood cells; also called huIL-18; human IL-18

重组人IL-1β = target: T2, 重组人IL-1β (human, UniProt P01584 117-269); assay: solution equilibrium titration (SET), single-target binding assay, MSD ECL read-out; mean KD
T2 construct: In the LPS/IL-12 assays the IL-1β is the native cytokine made by the blood cells; also called huIL-1β; IL-1b

binding result (重组人IL-18)	Kd (重组人IL-1β)	Binder
binds	–	mAb1 (antibody, human IgG1, lambda, L234A L235A, V domains shown, Human anti-IL-18 antibody, bivalent mAb; also called IL-18抗体mAb1) VH: EVQLVQSGAEVKKPGSSVKVSCKASGGTFKSYAISWVRQAPGQGLEWMGNIIPMTGQTYYAQKFQGRVTITADESTSTAYMELSSLRSEDTAVYYCARAAYHPLVFDNWGQGTLVTVSS VL: DIVLTQPPSVSGAPGQRVTISCSGSSSNIGNHYVNWYQQLPGTAPKLLIYRNNHRPSGVPDRFSGSKSGTSASLAITGLQSEDEADYYCQSWDYSGFSTVFGGGTKLTVLG
–	0.6 pM	mAb2 (antibody, human IgG1, kappa, V domains shown, Human anti-IL-1β antibody, bivalent mAb; also called IL-1β抗体mAb2) VH: QVQLVESGGGVVQPGRSLRLSCAASGFTFSVYGMNWVRQAPGKGLEWVAIIWYDGDNQYYADSVKGRFTISRDNSKNTLYLQMNGLRAEDTAVYYCARDLRTGPFDYWGQGTLVTVSS VL: EIVLTQSPDFQSVTPKEKVTITCRASQSIGSSLHWYQQKPDQSPKLLIKYASQSFSGVPSRFSGSGSGTDFTLTINSLEAEDAAAYYCHQSSSLPFTFGPGTKVDIKR
